From US20210130437A1 (ALPINE IMMUNE SCIENCES, published 2021)

Tests used:
[1] = molecular target: T1, human PD-1 expressed on cells (Jurkat/PD-1 cells) (human, UniProt Q15116 21-288); assay: flow cytometry, Jurkat/PD-1 cells
T1 construct: also called PDCD1

[2] = molecular target: T2, human TIGIT expressed on cells (Jurkat/TIGIT cells) (human, UniProt Q495A1 22-244); assay: flow cytometry, Jurkat/TIGIT cells
T2 sequence: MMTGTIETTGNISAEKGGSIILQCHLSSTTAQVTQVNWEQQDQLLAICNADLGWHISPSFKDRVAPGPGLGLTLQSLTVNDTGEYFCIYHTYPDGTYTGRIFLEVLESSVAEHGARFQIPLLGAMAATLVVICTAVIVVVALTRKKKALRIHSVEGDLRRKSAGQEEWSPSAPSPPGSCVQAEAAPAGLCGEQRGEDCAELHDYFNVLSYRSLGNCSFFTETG

[3] = molecular target: T3, CD226 (Homo sapiens (Human), UniProt Q15762 19-336); assay: flow cytometry, transfected cells
T3 construct: on transfected cells
T3 sequence: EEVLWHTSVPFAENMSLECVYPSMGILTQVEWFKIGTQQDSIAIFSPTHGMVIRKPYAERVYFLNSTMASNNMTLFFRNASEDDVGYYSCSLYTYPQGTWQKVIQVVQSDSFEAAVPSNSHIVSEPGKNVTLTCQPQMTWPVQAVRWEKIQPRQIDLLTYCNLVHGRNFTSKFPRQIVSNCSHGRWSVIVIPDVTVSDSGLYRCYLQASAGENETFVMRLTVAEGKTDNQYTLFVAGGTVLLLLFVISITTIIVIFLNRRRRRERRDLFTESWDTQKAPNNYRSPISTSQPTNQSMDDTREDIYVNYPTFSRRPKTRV

[4] = molecular target: T4, TIGIT (Homo sapiens (Human), UniProt Q495A1 22-244); assay: flow cytometry, transfected cells
T4 construct: on transfected cells
T4 sequence: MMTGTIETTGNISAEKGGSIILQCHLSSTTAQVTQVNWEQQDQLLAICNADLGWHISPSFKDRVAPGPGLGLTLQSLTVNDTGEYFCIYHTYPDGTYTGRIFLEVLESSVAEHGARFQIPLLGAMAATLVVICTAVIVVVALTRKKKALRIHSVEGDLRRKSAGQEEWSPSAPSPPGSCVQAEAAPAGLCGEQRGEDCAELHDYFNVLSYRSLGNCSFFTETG

[5] = molecular target: T5, CD96 (UniProt P40200 22-585, limits assumed); assay: flow cytometry, transfected cells
T5 construct: whole, on cells; on transfected cells
T5 sequence (looked up): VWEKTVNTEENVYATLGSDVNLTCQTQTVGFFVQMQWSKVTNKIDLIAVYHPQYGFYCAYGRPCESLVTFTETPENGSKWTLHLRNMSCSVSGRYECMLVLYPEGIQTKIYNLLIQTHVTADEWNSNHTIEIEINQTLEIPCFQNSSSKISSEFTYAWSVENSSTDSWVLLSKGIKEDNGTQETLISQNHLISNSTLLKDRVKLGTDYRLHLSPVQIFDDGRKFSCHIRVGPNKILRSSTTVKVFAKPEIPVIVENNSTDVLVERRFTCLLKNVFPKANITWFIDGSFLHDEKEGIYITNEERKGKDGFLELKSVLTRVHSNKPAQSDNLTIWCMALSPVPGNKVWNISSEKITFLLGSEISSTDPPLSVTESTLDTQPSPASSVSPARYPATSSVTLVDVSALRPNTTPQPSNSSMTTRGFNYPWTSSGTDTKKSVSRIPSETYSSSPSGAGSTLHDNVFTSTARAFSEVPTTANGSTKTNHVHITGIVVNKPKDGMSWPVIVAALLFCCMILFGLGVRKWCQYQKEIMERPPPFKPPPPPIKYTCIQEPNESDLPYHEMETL

[6] = molecular target: T6, PD-1 stably expressed on Jurkat/IL-2 reporter cells (Jurkat/PD-1) (human, UniProt Q15116 21-288); assay: culture supernatant on PD-1+ Jurkat cells, surface bound PD-L2 detected with anti-his-APC by flow cytometry
T6 construct: also called Jurkat/PD-1 cells; PD-1+ Jurkat cells
T6 sequence (Q15116 21-288): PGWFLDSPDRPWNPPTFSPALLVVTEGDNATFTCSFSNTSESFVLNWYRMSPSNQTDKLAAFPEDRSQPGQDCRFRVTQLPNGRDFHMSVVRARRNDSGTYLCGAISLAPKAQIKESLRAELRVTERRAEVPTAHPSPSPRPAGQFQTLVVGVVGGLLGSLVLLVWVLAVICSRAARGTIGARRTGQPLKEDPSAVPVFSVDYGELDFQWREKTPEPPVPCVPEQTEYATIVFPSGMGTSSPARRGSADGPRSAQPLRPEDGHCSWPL

T1 sequence (Q15116 21-288): as above

| Binder | MFI at 6.25 nM [1] [MFI] | MFI at 6.25 nM [2] [MFI] | binding result [6] | other results |
| --- | --- | --- | --- | --- |
| PD-L2/CD155 Stack 2 (Fc fusion, Homodimer; also called (PD-L2 IgV) (G4S)2 Fc (G4S)3 (CD155 IgV)) LFTVTVPKELYIIEQGSNVTLECNFDTGSHVNLGAITASLQKVENDASPHRERATLLEEQLPLGRALFHIPQVQVRDEGQYRCIIIYGDAWDYKYLTLKVKAGGGGSGGGGSEPKSSDKTHTCPPCPAPEAEGAPSVFLFPPKPKDTLMISRTPEVTCVVVDVSHEDPEVKFNWYVDGVEVHNAKTKPREEQYNSTYRVVSVLTVLHQDWLNGKEYKCKVSNKALPAPIEKTISKAKGQPREPQVYTLPPSRDELTKNQVSLTCLVKGFYPSDIAVEWESNGQPENNYKTTPPVLDSDGSFFLYSKLTVDKSRWQQGNVFSCSVMHEALHNHYTQKSLSLSPGKGGGGSGGGGSGGGGSWPPPGTGDVVVQAPTQVSGFLGDSVTLPCYLQVPNMEVTHVSQLTWARHGESGSMAVFHQTQGPWYAESKRLEFVAARLGAELRNASLRMFGLRVEDEGNYTCQFVTFPQRSRSVDIWLRVL | 16300 | 9100 |  |  |
| PD-L2/CD155 Stack 1 (Fc fusion, Homodimer; also called (CD155 IgV)-(G4S)2-Fc-(G4S)3 (PD-L2 IgV)) WPPPGTGDVVVQAPTQVSGFLGDSVTLPCYLQVPNMEVTHVSQLTWARHGESGSMAVFHQTQGPWYAESKRLEFVAARLGAELRNASLRMFGLRVEDEGNYTCQFVTFPQRSRSVDIWLRVLGGGGSGGGGSEPKSSDKTHTCPPCPAPEAEGAPSVFLFPPKPKDTLMISRTPEVTCVVVDVSHEDPEVKFNWYVDGVEVHNAKTKPREEQYNSTYRVVSVLTVLHQDWLNGKEYKCKVSNKALPAPIEKTISKAKGQPREPQVYTLPPSRDELTKNQVSLTCLVKGFYPSDIAVEWESNGQPENNYKTTPPVLDSDGSFFLYSKLTVDKSRWQQGNVFSCSVMHEALHNHYTQKSLSLSPGKGGGGSGGGGSGGGGSLFTVTVPKELYIIEQGSNVTLECNFDTGSHVNLGAITASLQKVENDASPHRERATLLEEQLPLGRALFHIPQVQVRDEGQYRCIIIYGDAWDYKYLTLKVKA |  | 19900 |  |  |
| Wildtype CD155 IgV Fc (Fc fusion, not shown: a dimerising Fc or GST) WPPPGTGDVVVQAPTQVPGFLGDSVTLPCYLQVPNMEVTHVSQLTWARHGESGSMAVFHQTQGPSYSESKRLEFVAARLGAELRNASLRMFGLRVEDEGNYTCLFVTFPQGSRSVDIWLRVL |  |  |  | MFI parental ratio [3]: 1 ratio; MFI parental ratio [4]: 1 ratio; MFI parental ratio [5]: 1 ratio |
| PD-L2 SIP with wildtype PD-L2 IgV (SEQ ID NO:115), Avitag and His tag (ligand, also called PD-L2 secreted immunomodulatory protein) LFTVTVPKELYIIEHGSNVTLECNFDTGSHVNLGAITASLQKVENDTSPHRERATLLEEQLPLGKASFHIPQVQVRDEGQYQCIIIYGVAWDYKYLTLKVKAGLNDIFEAQKIEWHEHHHHHH |  |  | binds |  |
| PD-L2 SIP with variant PD-L2 IgV H15Q,V31M,S67L,Q82R,V89D (SEQ ID NO:316), Avitag and His tag (ligand, also called variant PD-L2 SIP) LFTVTVPKELYIIEQGSNVTLECNFDTGSHMNLGAITASLQKVENDTSPHRERATLLEEQLPLGKALFHIPQVQVRDEGQYRCIIIYGDAWDYKYLTLKVKAGLNDIFEAQKIEWHEHHHHHH |  |  | binds |  |
| PD-L2 SIP with variant PD-L2 IgV H15Q,T47A,K65R,S67L,Q82R,V89D (SEQ ID NO:328), Avitag and His tag (ligand, also called variant PD-L2 SIP) LFTVTVPKELYIIEQGSNVTLECNFDTGSHVNLGAITASLQKVENDASPHRERATLLEEQLPLGRALFHIPQVQVRDEGQYRCIIIYGDAWDYKYLTLKVKAGLNDIFEAQKIEWHEHHHHHH |  |  | binds |  |
| PD-L2 SIP with variant PD-L2 IgV H15Q,T47A,S67L,R76G,Q82R,V89D (SEQ ID NO:342), Avitag and His tag (ligand, also called variant PD-L2 SIP) LFTVTVPKELYIIEQGSNVTLECNFDTGSHVNLGAITASLQKVENDASPHRERATLLEEQLPLGKALFHIPQVQVGDEGQYRCIIIYGDAWDYKYLTLKVKAGLNDIFEAQKIEWHEHHHHHH |  |  | binds |  |
| PD-L2/CD155 Stack 6 (Fc fusion, Homodimer; also called Fc (G4S)3 (PD-L2 IgV) (G4S)3 (CD155 IgV)) EPKSSDKTHTCPPCPAPEAEGAPSVFLFPPKPKDTLMISRTPEVTCVVVDVSHEDPEVKFNWYVDGVEVHNAKTKPREEQYNSTYRVVSVLTVLHQDWLNGKEYKCKVSNKALPAPIEKTISKAKGQPREPQVYTLPPSRDELTKNQVSLTCLVKGFYPSDIAVEWESNGQPENNYKTTPPVLDSDGSFFLYSKLTVDKSRWQQGNVFSCSVMHEALHNHYTQKSLSLSPGKGGGGSGGGGSGGGGSLFTVTVPKELYIIEQGSNVTLECNFDTGSHVNLGAITASLQKVENDASPHRERATLLEEQLPLGRALFHIPQVQVRDEGQYRCIIIYGDAWDYKYLTLKVKAGGGGSGGGGSGGGGSWPPPGTGDVVVQAPTQVSGFLGDSVTLPCYLQVPNMEVTHVSQLTWARHGESGSMAVFHQTQGPWYAESKRLEFVAARLGAELRNASLRMFGLRVEDEGNYTCQFVTFPQRSRSVDIWLRVL | 66 | 9970 |  |  |
| PD-L2/CD155 Stack 4 (Fc fusion, Homodimer; also called (PD-L2 IgV) (G4S)3 (CD155 IgV) (G4S)2 Fc) LFTVTVPKELYIIEQGSNVTLECNFDTGSHVNLGAITASLQKVENDASPHRERATLLEEQLPLGRALFHIPQVQVRDEGQYRCIIIYGDAWDYKYLTLKVKAGGGGSGGGGSGGGGSWPPPGTGDVVVQAPTQVSGFLGDSVTLPCYLQVPNMEVTHVSQLTWARHGESGSMAVFHQTQGPWYAESKRLEFVAARLGAELRNASLRMFGLRVEDEGNYTCQFVTFPQRSRSVDIWLRVLGGGGSGGGGSEPKSSDKTHTCPPCPAPEAEGAPSVFLFPPKPKDTLMISRTPEVTCVVVDVSHEDPEVKFNWYVDGVEVHNAKTKPREEQYNSTYRVVSVLTVLHQDWLNGKEYKCKVSNKALPAPIEKTISKAKGQPREPQVYTLPPSRDELTKNQVSLTCLVKGFYPSDIAVEWESNGQPENNYKTTPPVLDSDGSFFLYSKLTVDKSRWQQGNVFSCSVMHEALHNHYTQKSLSLSPGK | 9220 | 14500 |  |  |
| Wild Type PD-L2 full ECD Fc (Fc fusion, not shown: Fc and linker not specified) LFTVTVPKELYIIEHGSNVTLECNFDTGSHVNLGAITASLQKVENDTSPHRERATLLEEQLPLGKASFHIPQVQVRDEGQYQCIIIYGVAWDYKYLTLKVKASYRKINTHILKVPETDEVELTCQATGYPLAEVSWPNVSVPANTSHSRTPEGLYQVTSVLRLKPPPGRNFSCVFWNTHVRELTLASIDLQSQMEPRTHPT |  | 46 |  |  |
| Wild Type CD155 full ECD Fc (Fc fusion, not shown: Fc and linker not specified) WPPPGTGDVVVQAPTQVPGFLGDSVTLPCYLQVPNMEVTHVSQLTWARHGESGSMAVFHQTQGPSYSESKRLEFVAARLGAELRNASLRMFGLRVEDEGNYTCLFVTFPQGSRSVDIWLRVLAKPQNTAEVQKVQLTGEPVPMARCVSTGGRPPAQITWHSDLGGMPNTSQVPGFLSGTVTVTSLWILVPSSQVDGKNVTCKVEHESFEKPQLLTVNLTVYYPPEVSISGYDNNWYLGQNEATLTCDARSNPEPTGYNWSTTMGPLPPFAVAQGAQLLIRPVDKPINTTLICNVTNALGARQAELTVQVKEGPPSEHSGISRN | 64 |  |  |  |
| PD-L2/CD155 Stack 3 (Fc fusion, Homodimer; also called (CD155 IgV) (G4S)3 (PD-L2 IgV) (G4S)2 Fc) WPPPGTGDVVVQAPTQVSGFLGDSVTLPCYLQVPNMEVTHVSQLTWARHGESGSMAVFHQTQGPWYAESKRLEFVAARLGAELRNASLRMFGLRVEDEGNYTCQFVTFPQRSRSVDIWLRVLGGGGSGGGGSGGGGSLFTVTVPKELYIIEQGSNVTLECNFDTGSHVNLGAITASLQKVENDASPHRERATLLEEQLPLGRALFHIPQVQVRDEGQYRCIIIYGDAWDYKYLTLKVKAGGGGSGGGGSEPKSSDKTHTCPPCPAPEAEGAPSVFLFPPKPKDTLMISRTPEVTCVVVDVSHEDPEVKFNWYVDGVEVHNAKTKPREEQYNSTYRVVSVLTVLHQDWLNGKEYKCKVSNKALPAPIEKTISKAKGQPREPQVYTLPPSRDELTKNQVSLTCLVKGFYPSDIAVEWESNGQPENNYKTTPPVLDSDGSFFLYSKLTVDKSRWQQGNVFSCSVMHEALHNHYTQKSLSLSPGK | 91 | 22300 |  |  |
| PD-L2/CD155 Stack 5 (Fc fusion, Homodimer; also called Fc (G4S)3 (CD155 IgV) (G4S)3 (PD-L2 IgV)) EPKSSDKTHTCPPCPAPEAEGAPSVFLFPPKPKDTLMISRTPEVTCVVVDVSHEDPEVKFNWYVDGVEVHNAKTKPREEQYNSTYRVVSVLTVLHQDWLNGKEYKCKVSNKALPAPIEKTISKAKGQPREPQVYTLPPSRDELTKNQVSLTCLVKGFYPSDIAVEWESNGQPENNYKTTPPVLDSDGSFFLYSKLTVDKSRWQQGNVFSCSVMHEALHNHYTQKSLSLSPGKGGGGSGGGGSGGGGSWPPPGTGDVVVQAPTQVSGFLGDSVTLPCYLQVPNMEVTHVSQLTWARHGESGSMAVFHQTQGPWYAESKRLEFVAARLGAELRNASLRMFGLRVEDEGNYTCQFVTFPQRSRSVDIWLRVLGGGGSGGGGSGGGGSLFTVTVPKELYIIEQGSNVTLECNFDTGSHVNLGAITASLQKVENDASPHRERATLLEEQLPLGRALFHIPQVQVRDEGQYRCIIIYGDAWDYKYLTLKVKA | 108 | 5490 |  |  |
